In article PMC2953525, “Subtle Alterations in PCNA-Partner Interactions Severely Impair DNA Replication and Repair” (PLoS Biology, 2010):
Blank lines part the entries; values can stand above or below the binder they belong to. Where no end group is shown, it is not given here.

Legend:
[1] = biological target: T1, pol30-79 (yeast, UniProt P15873 1-258, IDCL DIDADFLKIEEL to DIDADFAKAEEL); experiment: two-hybrid; quantitative Y2H: generation time of the YRG2 strains in liquid SC-Leu-Trp-His, given relative to cells expressing WT PCNA; average of at least 3 experiments; settings: partners not purified
T1 construct: PCNA (POL30), yeast; the changes are then L126A and I128A; also called PCNA79; source: yeast two-hybrid fusion (pAD-GAL4, strain YRG2)
T1 sequence: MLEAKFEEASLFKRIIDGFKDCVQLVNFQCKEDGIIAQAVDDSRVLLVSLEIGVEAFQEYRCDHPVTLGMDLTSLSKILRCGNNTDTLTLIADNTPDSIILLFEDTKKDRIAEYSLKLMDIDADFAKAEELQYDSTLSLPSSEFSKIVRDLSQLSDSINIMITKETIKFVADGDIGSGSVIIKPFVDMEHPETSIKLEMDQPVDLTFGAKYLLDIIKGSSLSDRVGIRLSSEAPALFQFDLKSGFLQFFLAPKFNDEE

[2] = biological target: T2, pol30-Pol32E9 (yeast, UniProt P15873 1-258, IDCL DIDADFLKIEEL to DNDVDSLKIIEL); experiment: as above; settings: partners not purified
T2 construct: PCNA (POL30), yeast; source: yeast two-hybrid fusion (pAD-GAL4, strain YRG2)
T2 sequence: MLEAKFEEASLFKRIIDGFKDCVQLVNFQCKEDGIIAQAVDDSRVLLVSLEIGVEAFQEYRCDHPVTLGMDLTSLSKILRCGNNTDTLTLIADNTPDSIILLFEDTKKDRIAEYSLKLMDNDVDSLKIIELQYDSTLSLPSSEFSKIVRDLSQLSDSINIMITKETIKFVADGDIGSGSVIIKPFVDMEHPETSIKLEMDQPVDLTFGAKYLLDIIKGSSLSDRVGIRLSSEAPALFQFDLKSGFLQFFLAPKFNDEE

[3] = biological target: T3, pol30-Rad30E2 (yeast, UniProt P15873 1-258, IDCL DIDADFLKIEEL to DDDWDFLKILEL); experiment: as above; settings: partners not purified
T3 construct: PCNA (POL30), yeast; source: yeast two-hybrid fusion (pAD-GAL4, strain YRG2)
T3 sequence: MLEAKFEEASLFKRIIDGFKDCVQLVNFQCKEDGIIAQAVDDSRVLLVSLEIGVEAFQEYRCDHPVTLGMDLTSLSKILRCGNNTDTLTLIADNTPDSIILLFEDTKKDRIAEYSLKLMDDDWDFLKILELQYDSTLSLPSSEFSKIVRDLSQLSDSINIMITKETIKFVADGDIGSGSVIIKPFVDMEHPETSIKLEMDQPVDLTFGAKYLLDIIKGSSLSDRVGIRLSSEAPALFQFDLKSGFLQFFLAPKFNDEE

[4] = biological target: T4, pol30-Pol32E5 (yeast, UniProt P15873 1-258, IDCL DIDADFLKIEEL to DADNDFLKISEL); experiment: as above; settings: partners not purified
T4 construct: PCNA (POL30), yeast; source: yeast two-hybrid fusion (pAD-GAL4, strain YRG2)
T4 sequence: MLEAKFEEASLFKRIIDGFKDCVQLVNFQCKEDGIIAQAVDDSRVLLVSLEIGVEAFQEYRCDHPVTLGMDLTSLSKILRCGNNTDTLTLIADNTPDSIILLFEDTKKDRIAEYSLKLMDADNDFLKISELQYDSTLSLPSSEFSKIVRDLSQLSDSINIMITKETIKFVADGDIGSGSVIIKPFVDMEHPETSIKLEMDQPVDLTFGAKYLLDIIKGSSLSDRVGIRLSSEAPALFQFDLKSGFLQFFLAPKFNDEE

[5] = biological target: T5, pol30-Msh6E2 (yeast, UniProt P15873 1-258, IDCL DIDADFLKIEEL to DYDRDMLKISEL); experiment: as above; settings: partners not purified
T5 construct: PCNA (POL30), yeast; source: yeast two-hybrid fusion (pAD-GAL4, strain YRG2)
T5 sequence: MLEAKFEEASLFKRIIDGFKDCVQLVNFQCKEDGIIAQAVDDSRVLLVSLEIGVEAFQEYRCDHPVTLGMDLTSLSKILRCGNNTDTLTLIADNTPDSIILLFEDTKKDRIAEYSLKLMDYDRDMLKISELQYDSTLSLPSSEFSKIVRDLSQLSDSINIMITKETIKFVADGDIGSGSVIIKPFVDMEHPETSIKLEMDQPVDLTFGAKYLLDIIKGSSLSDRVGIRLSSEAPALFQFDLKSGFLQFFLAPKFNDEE

[6] = biological target: T6, pol30-Msh6E6 (yeast, UniProt P15873 1-258, IDCL DIDADFLKIEEL to DYDKDLLKIIEL); experiment: as above; settings: partners not purified
T6 construct: PCNA (POL30), yeast; source: yeast two-hybrid fusion (pAD-GAL4, strain YRG2)
T6 sequence: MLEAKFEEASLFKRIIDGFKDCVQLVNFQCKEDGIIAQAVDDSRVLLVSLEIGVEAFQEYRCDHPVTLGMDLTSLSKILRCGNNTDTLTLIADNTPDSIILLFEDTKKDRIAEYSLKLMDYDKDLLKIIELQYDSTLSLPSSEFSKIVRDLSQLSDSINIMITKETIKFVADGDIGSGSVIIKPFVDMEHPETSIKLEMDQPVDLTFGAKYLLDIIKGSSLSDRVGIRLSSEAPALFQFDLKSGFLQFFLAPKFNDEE

[7] = biological target: T7, pol30-Pol32E9, 6×Histidine-tagged (yeast, UniProt P15873 1-258, IDCL DIDADFLKIEEL to DNDVDSLKIIEL); experiment: SPR; ProteOn XPR36; WT or mutant PCNA (0.4 to 5.2 fmol) immobilised on a GLM chip by carbodiimide-activated succinimide coupling; PIP peptides 5–5,000 nM at 30 µl/min; peptide buffer 150 mM NaCl, 1 mM EDTA, 0.01% Tween-80, 30 mM Hepes, pH 7.5; settings: both partners purified
T7 construct: PCNA (POL30), yeast, in pET28; source: E. coli BL21, in cleared crude lysate (ELISA); purified by Ni-NTA (SPR)
T7 sequence: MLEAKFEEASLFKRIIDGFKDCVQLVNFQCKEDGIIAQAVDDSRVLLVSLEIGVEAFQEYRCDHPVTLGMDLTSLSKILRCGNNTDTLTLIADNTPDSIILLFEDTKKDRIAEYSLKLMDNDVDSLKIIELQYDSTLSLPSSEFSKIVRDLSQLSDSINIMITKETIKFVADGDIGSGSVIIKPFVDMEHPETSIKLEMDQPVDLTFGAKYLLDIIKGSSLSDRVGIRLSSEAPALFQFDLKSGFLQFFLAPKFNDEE

[8] = biological target: T8, pol30-Ung1E3 (yeast, UniProt P15873 1-258, IDCL DIDADFLKIEEL to DFDYDELKIEEL); experiment: two-hybrid; quantitative Y2H: generation time of the YRG2 strains in liquid SC-Leu-Trp-His, given relative to cells expressing WT PCNA; average of at least 3 experiments; settings: partners not purified
T8 construct: PCNA (POL30), yeast; source: yeast two-hybrid fusion (pAD-GAL4, strain YRG2)
T8 sequence: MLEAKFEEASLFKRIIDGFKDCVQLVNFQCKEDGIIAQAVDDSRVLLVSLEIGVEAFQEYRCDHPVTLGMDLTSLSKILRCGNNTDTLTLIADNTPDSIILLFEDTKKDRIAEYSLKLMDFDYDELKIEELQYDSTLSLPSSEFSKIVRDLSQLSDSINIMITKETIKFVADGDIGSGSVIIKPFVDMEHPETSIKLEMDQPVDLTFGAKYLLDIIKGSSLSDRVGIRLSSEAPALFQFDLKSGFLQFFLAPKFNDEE

[9] = biological target: T9, pol30-Rad30E9, 6×Histidine-tagged (yeast, UniProt P15873 1-258, IDCL DIDADFLKIEEL to DNDWDFLKIDEL); experiment: SPR; ProteOn XPR36; WT or mutant PCNA (0.4 to 5.2 fmol) immobilised on a GLM chip by carbodiimide-activated succinimide coupling; PIP peptides 5–5,000 nM at 30 µl/min; peptide buffer 150 mM NaCl, 1 mM EDTA, 0.01% Tween-80, 30 mM Hepes, pH 7.5; settings: both partners purified
T9 construct: PCNA (POL30), yeast, in pET28; also called Pol30-Rad30E9p; source: E. coli BL21, in cleared crude lysate (ELISA); purified by Ni-NTA (SPR)
T9 sequence: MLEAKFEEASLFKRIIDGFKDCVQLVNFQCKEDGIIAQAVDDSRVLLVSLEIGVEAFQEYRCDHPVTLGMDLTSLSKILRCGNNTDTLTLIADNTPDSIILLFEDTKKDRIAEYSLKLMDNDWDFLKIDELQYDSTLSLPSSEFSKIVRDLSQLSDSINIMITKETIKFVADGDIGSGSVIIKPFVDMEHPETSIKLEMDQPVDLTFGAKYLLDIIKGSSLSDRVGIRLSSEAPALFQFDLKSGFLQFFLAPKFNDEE

B2: Msh6 (natural protein, yeast, UniProt Q03834 1-1242, looked up)
chain: MAPATPKTSKTAHFENGSTSSQKKMKQSSLLSFFSKQVPSGTPSKKVQKPTPATLENTATDKITKNPQGGKTGKLFVDVDEDNDLTIAEETVSTVRSDIMHSQEPQSDTMLNSNTTEPKSTTTDEDLSSSQSRRNHKRRVNYAESDDDDSDTTFTAKRKKGKVVDSESDEDEYLPDKNDGDEDDDIADDKEDIKGELAEDSGDDDDLISLAETTSKKKFSYNTSHSSSPFTRNISRDNSKKKSRPNQAPSRSYNPSHSQPSATSKSSKFNKQNEERYQWLVDERDAQRRPKSDPEYDPRTLYIPSSAWNKFTPFEKQYWEIKSKMWDCIVFFKKGKFFELYEKDALLANALFDLKIAGGGRANMQLAGIPEMSFEYWAAQFIQMGYKVAKVDQRESMLAKEMREGSKGIVKRELQCILTSGTLTDGDMLHSDLATFCLAIREEPGNFYNETQLDSSTIVQKLNTKIFGAAFIDTATGELQMLEFEDDSECTKLDTLMSQVRPMEVVMERNNLSTLANKIVKFNSAPNAIFNEVKAGEEFYDCDKTYAEIISSEYFSTEEDWPEVLKSYYDTGKKVGFSAFGGLLYYLKWLKLDKNLISMKNIKEYDFVKSQHSMVLDGITLQNLEIFSNSFDGSDKGTLFKLFNRAITPMGKRMMKKWLMHPLLRKNDIESRLDSVDSLLQDITLREQLEITFSKLPDLERMLARIHSRTIKVKDFEKVITAFETIIELQDSLKNNDLKGDVSKYISSFPEGLVEAVKSWTNAFERQKAINENIIVPQRGFDIEFDKSMDRIQELEDELMEILMTYRKQFKCSNIQYKDSGKEIYTIEIPISATKNVPSNWVQMAANKTYKRYYSDEVRALARSMAEAKEIHKTLEEDLKNRLCQKFDAHYNTIWMPTIQAISNIDCLLAITRTSEYLGAPSCRPTIVDEVDSKTNTQLNGFLKFKSLRHPCFNLGATTAKDFIPNDIELGKEQPRLGLLTGANAAGKSTILRMACIAVIMAQMGCYVPCESAVLTPIDRIMTRLGANDNIMQGKSTFFVELAETKKILDMATNRSLLVVDELGRGGSSSDGFAIAESVLHHVATHIQSLGFFATHYGTLASSFKHHPQVRPLKMSILVDEATRNVTFLYKMLEGQSEGSFGMHVASMCGISKEIIDNAQIAADNLEHTSRLVKERDLAANNLNGEVVSVPGGLQSDFVRIAYGDGLKNTKLGSGEGVLNYDWNIKRNVLKSLFSIIDDLQS
notes: Msh6 (mismatch repair), yeast; also called pBD-Msh6; source: yeast two-hybrid fusion (pBD-GAL4, strain YRG2)
- fold change in affinity relative to WT PCNA (Y2H generation time) [1]: 0.4 fold
- fold change in affinity relative to WT PCNA (Y2H generation time) [5]: 1.4 fold
- fold change in affinity relative to WT PCNA (Y2H generation time) [6]: 1.4 fold

Binder: QGTLESFFKRKAK (also: biotinylated, site not given here) [PIP peptide derived from Pol32]
- fold increase in binding affinity relative to WT PCNA (SPR) [7]: 2 fold

Binder: QKKQVTSSKNILSFFTRKK (also: biotinylated, site not given here) [PIP peptide derived from Rad30]
- fold increase in binding affinity relative to WT PCNA (SPR) [9]: 8.5 fold

Results, then the binder that gave them:

- fold change in affinity relative to WT PCNA (Y2H generation time) [1]: 0.3 fold
- fold change in affinity relative to WT PCNA (Y2H generation time) [2]: 1.3 fold
- fold change in affinity relative to WT PCNA (Y2H generation time) [3]: 0.4 fold
- fold change in affinity relative to WT PCNA (Y2H generation time) [4]: 1.5 fold
B1: Pol32 (natural protein, yeast, UniProt P47110 1-350, looked up)
chain: MDQKASYFINEKLFTEVKPVLFTDLIHHLKIGPSMAKKLMFDYYKQTTNAKYNCVVICCYKDQTIKIIHDLSNIPQQDSIIDCFIYAFNPMDSFIPYYDIIDQKDCLTIKNSYELKVSESSKIIERTKTLEEKSKPLVRPTARSKTTPEETTGRKSKSKDMGLRSTALLAKMKKDRDDKETSRQNELRKRKEENLQKINKQNPEREAQMKELNNLFVEDDLDTEEVNGGSKPNSPKETDSNDKDKNNDDLEDLLETTAEDSLMDVPKIQQTKPSETEHSKEPKSEEEPSSFIDEDGYIVTKRPATSTPPRKPSPVVKRALSSSKKQETPSSNKRLKKQGTLESFFKRKAK
notes: Pol32 (DNA polymerase subunit), yeast; also called pBD-Pol32; source: yeast two-hybrid fusion (pBD-GAL4, strain YRG2)

- fold change in affinity relative to WT PCNA (Y2H generation time) [1]: 0.3 fold
- fold change in affinity relative to WT PCNA (Y2H generation time) [8]: 1.3 fold
B3: Ung1 (natural protein, yeast, UniProt P12887 1-359, looked up)
chain: MWCMRRLPTNSVMTVARKRKQTTIEDFFGTKKSTNEAPNKKGKSGATFMTITNGAAIKTETKAVAKEANTDKYPANSNAKDVYSKNLSSNLRTLLSLELETIDDSWFPHLMDEFKKPYFVKLKQFVTKEQADHTVFPPAKDIYSWTRLTPFNKVKVVIIGQDPYHNFNQAHGLAFSVKPPTPAPPSLKNIYKELKQEYPDFVEDNKVGDLTHWASQGVLLLNTSLTVRAHNANSHSKHGWETFTKRVVQLLIQDREADGKSLVFLLWGNNAIKLVESLLGSTSVGSGSKYPNIMVMKSVHPSPLSASRGFFGTNHFKMINDWLYNTRGEKMIDWSVVPGTSLREVQEANARLESESKDP
notes: Ung1 (base excision repair), yeast; also called pBD-Ung1; source: yeast two-hybrid fusion (pBD-GAL4, strain YRG2)
